Target: T1, tp8l2_human TNFAIP8L2 (UniProt Q6P589)
T1 sequence: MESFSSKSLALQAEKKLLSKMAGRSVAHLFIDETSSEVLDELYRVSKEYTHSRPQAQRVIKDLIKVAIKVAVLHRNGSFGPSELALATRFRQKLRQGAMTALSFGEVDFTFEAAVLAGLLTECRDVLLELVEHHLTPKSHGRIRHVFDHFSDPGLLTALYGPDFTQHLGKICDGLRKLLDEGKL

Question: Which “effect of a mutation on the interaction” value does the source give for “Ras-related C3 botulinum toxin substrate 1 (Homo sapiens) (from UniProt P63000-1) C189S” here?
Answer: disrupting interaction strength

— IntAct's records for PubMed 22949657
